Assay results as given in PMC11031135, “Chemo-enzymatic synthesis of tetrasaccharide linker peptides to study the divergent step in glycosaminoglycan biosynthesis” (Glycobiology, 2024).

B1: human β4GalT7, residues 81-327 (enzyme, UniProt Q9UBV7 81-327, looked up)
chain: PEHWEEDASWGPHRLAVLVPFRERFEELLVFVPHMRRFLSRKKIRHHIYVLNQVDHFRFNRAALINVGFLESSNSTDYIAMHDVDLLPLNEELDYGFPEAGPFHVASPELHPLYHYKTYVGGILLLSKQHYRLCNGMSNRFWGWGREDDEFYRRIKGAGLQLFRPSGITTGYKTFRHLHDPAWRKRDQKRIAAQKQEQFKVDREGGLNTVKYHVASRTALSVGGAPCTVLNIMLDCDKTATPWCTFS
notes: human beta-1,4-galactosyltransferase 7, UniProt Q9UBV7, residues 81-327, without the N-terminal transmembrane anchoring helix; Made from the pETM30 vector; The 6xHis-GST tag was removed by TEV protease; The printed monomer mass is 29 kDa; also called β4GalT7_81-327; source: E. coli Rosetta(DE3)pLysS, purified (IMAC, TEV cleavage, second IMAC, Superdex 200); not shown: 6xHistidine, N-terminal, …
B2: SUMO-β3GalT6 fusion protein (human β3GalT6 residues 53-329) (enzyme, UniProt Q96L58 53-329, looked up)
chain: ARAAAFLAVLVASAPRAAERRSVIRSTWLARRGAPGDVWARFAVGTAGLGAEERRALEREQARHGDLLLLPALRDAYENLTAKVLAMLAWLDEHVAFEFVLKADDDSFARLDALLAELRAREPARRRRLYWGFFSGRGRVKPGGRWREAAWQLCDYYLPYALGGGYVLSADLVHYLRLSRDYLRAWHSEDVSLGAWLAPVDVQREHDPRFDTEYRSRGCSNQYLVTHKQSLEDMLEKHATLAREGRLCKREVQLRLSYVYDWSAPPSQCCQRREGIP
notes: human beta-1,3-galactosyltransferase 6, UniProt Q96L58, residues 53-329, without the N-terminal transmembrane anchoring helix; The fusion was not cleaved; The printed monomer mass is 45 kDa; also called β3GalT6_53-329; source: FreeStyle 293-F cells, transfected, culture supernatant, purified (one-step IMAC, dialysis); not shown: SUMO, N-terminal, kept; 6xHistidine, N-terminal, kept
B3: human GlcAT-1, residues 76-335 (enzyme, UniProt O94766 76-335, looked up)
chain: TIYVVTPTYARLVQKAELVRLSQTLSLVPRLHWLLVEDAEGPTPLVSGLLAASGLLFTHLVVLTPKAQRLREGEPGWVHPRGVEQRNKALDWLRGRGGAVGGEKDPPPPGTQGVVYFADDDNTYSRELFEEMRWTRGVSVWPVGLVGGLRFEGPQVQDGRVVGFHTAWEPSRPFPVDMAGFAVALPLLLDKPNAQFDSTAPRGHLESSLLSHLVDPKDLEPRAANCTRVLVWHTRTEKPKMKQEEQLQRQGRGSDPAIEV
notes: human glucuronyltransferase GlcAT-1, UniProt O94766, residues 76-335, without the N-terminal transmembrane anchoring helix; Made from the pETM30 vector; The 6xHis-GST tag was removed by TEV protease; The printed monomer mass is 29 kDa; also called GlcAT-1_76-335; source: E. coli BL21(DE3)pLysS, purified (IMAC, TEV cleavage, flow-through of the second IMAC); not shown: 6xHistidine, N-terminal, …

Biological target: the molecule itself
Test: mass photometry; Refeyn OneMP; final protein concentration between 50 nM and 125 nM; XylT1 and SUMO-β3GalT6 in Tris buffer A (50 mM Tris pH 7.4, 250 mM NaCl) with 5% glycerol, β4GalT7 in S200 buffer (25 mM MES pH 6.5, 200 mM NaCl, 5% glycerol), GlcAT-1 in HEPES buffer; duplicates

Row | Protein | stoichiometry N
1 | B1 | 2
2 | B2 | 2
3 | B3 | 2
